Source: patent US20110275057A1

Columns and labels:
[1] = molecular target: Protein Kinase A catalytic subunit (bos taurus) (UniProt P00517); assay: cell-based or functional assay
[2] = molecular target: Protein Kinase A catalytic subunit (bos taurus) (UniProt P00517); assay: holoenzyme formation with CS; method and reference not described

Protein Kinase A regulatory subunit (RIα isomer), double Cys mutant (Ser 145→Cys; Gly 235→Cys), no DNA coupled (from UniProt Q9DBC7 1-381)
inhibitory effects (on kinase activity) relative to the wild type RS [1]: > 80%
kinase activity, fold increase on addition of cAMP to the holoenzyme built with the Cys mutant without DNA (FIG. 17b) [1]: 3 fold

RIα-DNA chimera hybridized with the complementary DNA 60 mer (ds chimera, under mechanical tension) (from UniProt Q9DBC7 1-381)
kinase activity (Luciferase assay, ATP disappearance), fold increase over the ss chimera holoenzyme, batch of FIG. 17a [1]: 2 fold
kinase activity, increase over the ss chimera holoenzyme, second synthesis batch (FIG. 17b) [1]: 50%
γDNA (increase in activity by the complementary DNA, corrected for the yield; case γDNA≧γcAMP) [1]: 2.7 fold

RIα-DNA chimera: PKA regulatory subunit (Ser 145→Cys; Gly 235→Cys) with a single stranded DNA 60 mer coupled to the two Cys residues (from UniProt Q9DBC7 1-381)
kinase activity, fold increase on addition of cAMP to the chimera holoenzyme, batch of FIG. 17a [1]: 3 fold
kinase activity, fold increase on addition of cAMP to the chimera holoenzyme, second batch (FIG. 17b) [1]: 2 fold
γcAMP (case γDNA<γcAMP) [1]: 2.3 fold
γcAMP (increase in activity by cAMP; case γDNA≧γcAMP) [1]: 2.6 fold
decrease in associating with the CS to form the holoenzyme [2]: 20%
